Measured values taken from patent US20180087042A1 (OPKO BIOLOGICS, published 2018).

Key:
[1] = target: MOD-5014 (FVIIa-CTP3: activated Factor VII with three CTP peptides attached at the C-terminus) (human) (UniProt P08709); experiment: cell-based or functional assay
[2] = target: NovoSeven® (commercial recombinant human FVIIa) (human) (UniProt P08709); experiment: cell-based or functional assay
Sequence of NovoSeven® (commercial recombinant human FVIIa) (human) (P08709 61-466 limits assumed): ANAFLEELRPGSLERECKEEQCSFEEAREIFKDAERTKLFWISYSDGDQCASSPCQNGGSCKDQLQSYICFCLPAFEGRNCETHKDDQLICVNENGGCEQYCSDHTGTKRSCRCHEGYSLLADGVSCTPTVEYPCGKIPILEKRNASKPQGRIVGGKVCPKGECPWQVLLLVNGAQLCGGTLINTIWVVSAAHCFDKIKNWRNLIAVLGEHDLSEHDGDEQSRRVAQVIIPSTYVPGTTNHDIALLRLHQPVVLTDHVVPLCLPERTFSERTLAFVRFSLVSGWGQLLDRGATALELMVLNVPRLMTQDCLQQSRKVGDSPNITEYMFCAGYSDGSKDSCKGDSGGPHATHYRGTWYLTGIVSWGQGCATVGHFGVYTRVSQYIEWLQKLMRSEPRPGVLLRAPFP

Sequence of MOD-5014 (FVIIa-CTP3: activated Factor VII with three CTP peptides attached at the C-terminus) (human) (P08709 61-212, chain 1 of 2): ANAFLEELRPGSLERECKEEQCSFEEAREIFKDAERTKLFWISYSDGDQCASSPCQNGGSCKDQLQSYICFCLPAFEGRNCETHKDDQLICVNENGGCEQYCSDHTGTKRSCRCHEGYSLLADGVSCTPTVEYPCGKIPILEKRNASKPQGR
Sequence of MOD-5014 (FVIIa-CTP3: activated Factor VII with three CTP peptides attached at the C-terminus) (human) (P08709 other isoform, or with tags, fused parts or gaps, chain 2 of 2): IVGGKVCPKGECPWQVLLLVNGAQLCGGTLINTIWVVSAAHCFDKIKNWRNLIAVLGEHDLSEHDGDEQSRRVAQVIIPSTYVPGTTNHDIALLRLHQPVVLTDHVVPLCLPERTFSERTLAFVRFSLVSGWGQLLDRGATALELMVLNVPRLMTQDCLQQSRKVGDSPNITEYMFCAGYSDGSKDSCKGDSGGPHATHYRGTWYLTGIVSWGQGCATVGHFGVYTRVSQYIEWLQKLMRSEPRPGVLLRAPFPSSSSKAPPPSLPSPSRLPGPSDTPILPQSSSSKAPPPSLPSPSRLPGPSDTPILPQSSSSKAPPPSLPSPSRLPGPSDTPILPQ

% Inhibition of clotting activity, AT 1.050 ng/mL [1]: 25%
% Inhibition of clotting activity, AT 10.5 ng/mL [1]: 28%
% Inhibition of clotting activity, AT 105 ng/mL [1]: 25%
% Inhibition of clotting activity, AT 10,500 ng/mL [1]: 25%
% Inhibition of clotting activity, AT 105000 ng/mL [1]: 62%
% Inhibition of clotting activity, AT 525000 ng/mL [1]: 100%
Activity (mU/mL), Staclot clotting, AT 1.050 ng/mL [1]: 52.9 mU/mL
Activity (mU/mL), Staclot clotting, AT 10.5 ng/mL [1]: 50.7 mU/mL
Activity (mU/mL), Staclot clotting, AT 105 ng/mL [1]: 53.3 mU/mL
Activity (mU/mL), Staclot clotting, AT 1,050 ng/mL [1]: 53.4 mU/mL
Activity (mU/mL), Staclot clotting, AT 10,500 ng/mL [1]: 53 mU/mL
Activity (mU/mL), Staclot clotting, AT 105000 ng/mL [1]: 27 mU/mL
Activity (mU/mL), Staclot clotting, AT 525000 ng/mL [1]: 0 mU/mL
O.D, FX activation by MOD-5014 (0.7 ng/ml) at AT 0.16 µg/ml [1]: 1.18 O.D
O.D, FX activation by MOD-5014 (0.7 ng/ml) at AT 0.8 µg/ml [1]: 1.07 O.D
O.D, FX activation by MOD-5014 (0.7 ng/ml) at AT 4 µg/ml [1]: 1.14 O.D
O.D, FX activation by MOD-5014 (0.7 ng/ml) at AT 20 µg/ml [1]: 1.11 O.D
O.D, FX activation by MOD-5014 (0.7 ng/ml) at AT 100 µg/ml [1]: 0.974 O.D
O.D, FX activation by MOD-5014 (0.7 ng/ml) at AT 500 µg/ml [1]: 0.975 O.D
O.D, FX activation by MOD-5014 (0.7 ng/ml) at AT 1680 µg/ml [1]: 0.656 O.D
O.D., FX activation by MOD-5014 (0.7 ng/ml) with AT III 20 µg/ml and heparin 0.002 U/µl [1]: 1.29 O.D.
O.D., FX activation by MOD-5014 (0.7 ng/ml) with AT III 20 µg/ml and heparin 0.01 U/µl [1]: 1.14 O.D.
O.D., FX activation by MOD-5014 (0.7 ng/ml) with AT III 20 µg/ml and heparin 0.25 U/µl [1]: 0.017 O.D.
O.D., FX activation by MOD-5014 (0.7 ng/ml) with AT III 20 µg/ml and heparin 1.25 U/µl [1]: 0.896 O.D.
O.D., FX activation by MOD-5014 (0.7 ng/ml) with AT III 20 µg/ml and heparin 6.25 U/µl [1]: 1.02 O.D.
% Inhibition of clotting activity, AT 1.050 ng/mL [2]: 21%
% Inhibition of clotting activity, AT 105 ng/mL [2]: 20%
% Inhibition of clotting activity, AT 10,500 ng/mL [2]: 30%
% Inhibition of clotting activity, AT 525000 ng/mL [2]: 100%
Activity (mU/mL), Staclot clotting, AT 1.050 ng/mL [2]: 69.5 mU/mL
Activity (mU/mL), Staclot clotting, AT 10.5 ng/mL [2]: 68.4 mU/mL
Activity (mU/mL), Staclot clotting, AT 105 ng/mL [2]: 70.2 mU/mL
Activity (mU/mL), Staclot clotting, AT 1,050 ng/mL [2]: 66.8 mU/mL
Activity (mU/mL), Staclot clotting, AT 10,500 ng/mL [2]: 61.5 mU/mL
Activity (mU/mL), Staclot clotting, AT 105000 ng/mL [2]: 30.6 mU/mL
Activity (mU/mL), Staclot clotting, AT 525000 ng/mL [2]: 0 mU/mL
O.D, FX activation by NovoSeven (0.7 ng/ml) at AT 0.16 µg/ml [2]: 1.23 O.D
O.D, FX activation by NovoSeven (0.7 ng/ml) at AT 4 µg/ml [2]: 1.17 O.D
O.D, FX activation by NovoSeven (0.7 ng/ml) at AT 20 µg/ml [2]: 1.15 O.D
O.D, FX activation by NovoSeven (0.7 ng/ml) at AT 100 µg/ml [2]: 1.14 O.D
O.D, FX activation by NovoSeven (0.7 ng/ml) at AT 500 µg/ml [2]: 0.933 O.D
O.D, FX activation by NovoSeven (0.7 ng/ml) at AT 1680 µg/ml [2]: 0.784 O.D
O.D., FX activation by NovoSeven (0.7 ng/ml) with AT III 20 µg/ml and heparin 0.002 U/µl [2]: 1.24 O.D.
O.D., FX activation by NovoSeven (0.7 ng/ml) with AT III 20 µg/ml and heparin 0.01 U/µl [2]: 1.2 O.D.
O.D., FX activation by NovoSeven (0.7 ng/ml) with AT III 20 µg/ml and heparin 0.25 U/µl [2]: 1.04 O.D.
O.D., FX activation by NovoSeven (0.7 ng/ml) with AT III 20 µg/ml and heparin 1.25 U/µl [2]: 0.98 O.D.
O.D., FX activation by NovoSeven (0.7 ng/ml) with AT III 20 µg/ml and heparin 6.25 U/µl [2]: 1 O.D.
Substance: Anti thrombin III (ATIII) (from UniProt P01008 33-464)
